# Assay results from US20230122364A1.
# Assays:
# [1] = target: SRBD subdomain of SARS-CoV-2 S protein (SARS-CoV-2) (UniProt P0DTC2); test: ELISA on coated SRBD
# [2] = target: SARS-CoV S2Pecto antigen (SARS-CoV) (UniProt P59594); test: ELISA on coated SARS-CoV S2Pecto
substance,measurement,setting,value
rCR3022 (recombinant form of the cross-reactive SARS-CoV SRBD mAb CR3022) (antibody),EC50,[1],1.1 ng/mL
same,EC50,[2],5.2 ng/mL
